Test results from article PMC5004165.
pKd: −log10 of the molar value.

Target: T1, NF-kB p50 homodimer (UniProt P19838)
T1 sequence: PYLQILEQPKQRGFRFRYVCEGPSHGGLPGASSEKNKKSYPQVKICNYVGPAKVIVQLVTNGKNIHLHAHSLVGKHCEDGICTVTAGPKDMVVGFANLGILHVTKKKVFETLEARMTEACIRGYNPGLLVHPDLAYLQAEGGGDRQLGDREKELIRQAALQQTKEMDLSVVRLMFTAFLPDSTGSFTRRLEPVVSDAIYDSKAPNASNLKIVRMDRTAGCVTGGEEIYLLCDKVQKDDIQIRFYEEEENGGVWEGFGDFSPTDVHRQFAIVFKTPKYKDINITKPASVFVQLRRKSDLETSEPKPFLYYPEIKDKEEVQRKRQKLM
Assay: SPR
Conditions: EMSA: 10 mM Tris-HCl pH 7.5, 50 mM NaCl, 1 mM DTT, 1 mM EDTA, BSA (printed 10 mg/mL), 1% NP-40, 5% glycerol, poly(dI-dC), 20 C 45 min, SPR: 10 mM Tris-HCl pH 7.; for binding signal (% of unplatinated plateau): steady state

[1] = BBR3464 adducts, 1 per duplex, global
[2] = transplatin adducts, 1 per duplex, global

CCTACCAAGTCTGAGGGGACTTTCCCAGGC (double strand) [DUPLEX-kB(SPR-BIO) BBR3464]
pKd [1]: 8.40
binding signal (% of unplatinated plateau) [1]: 21

CCTACCAAGTCTGAGGGGACTTTCCCAGGC (double strand) [DUPLEX-kB(SPR-BIO) cisplatin]
pKd (cisplatin adducts, 1 per duplex, global): 8.62

CCTACCAAGTCTGAGGGGACTTTCCCAGGC (double strand) [DUPLEX-kB(SPR-BIO) transplatin]
binding signal (% of unplatinated plateau) [2]: 88
pKd [2]: 8.70

CCTACCAAGTCTGAGGGGACTTTCCCAGGC (double strand) [DUPLEX-kB(SPR-BIO)]
pKd: 8.71
